Reference: patent US5908790A, “Methods for removing heavy metals from aqueous solutions and for analysis” (Behring Diagnostics GmbH, priority 1990, dated 1999)

Tests used:
Assay type in all cases: binding
DTPA-Cu = assay: Quantitative inhibition ELISA of mAB, competitor DTPA-Cu; conditions: solid phase Y benzyl-DTPA-HSA conjugate
Protocol: (§1) The ELISA comprised a solid phase which was loaded with a solution containing human serum albumin (HSA)-benzyl-DTPA. The supernatant which was to be tested and contained the mAB was preincubated with free complexone or the metal ion complex thereof, and its binding to the specific solid phase was measured. For this purpose, an enzyme amplification system which is coupled to an anti-mouse-immunoglobulin antibody was used. The details of this method are described in Examples 2 and 3.
(§2) The complexones DTPA and EDTA in noncomplexed and in complexed form (Example 4) were used as competitors. Additionally, the structurally related compounds transaconitic acid and 1,2-diaminoethane were used as inhibitors (see Tab. I). The excess amounts of competitor presented in Tab. […] These characteristics make it possible to use the mAB, e.g. coupled on filters or other solid supports, for removing both noncomplexed EDTA or DTPA and EDTA-metal ion or DTPA-metal ion complexes from liquids. Precipitation reactions of mAB-/EDTA-metal ion complexes are likewise suitable for removing the toxic metal ions.
(§3) Divisible 96-well polystyrene microtiter plates (U-shape) type B. supplied by Nunc, No. 4-60445 were employed as support material. The assay was carried out according to the following protocol. […]
(§4) (15) The extinctions are measured at 492 nm in the TITERTEK^R MULTISCAN. […]

DTPA-Pb = assay: Quantitative inhibition ELISA of mAB, competitor DTPA-Pb; conditions: solid phase Y benzyl-DTPA-HSA conjugate
Protocol: as §1, §2, §3, §4

EDTA-Mn = assay: Quantitative inhibition ELISA of mAB, competitor EDTA-Mn; conditions: solid phase Y benzyl-DTPA-HSA conjugate
Protocol: as §1, §2, §3, §4

[1] = Quantitative inhibition ELISA of mAB, competitor EDTA
Protocol: as §1, §2, §3, §4

DTPA-Cd = assay: Quantitative inhibition ELISA of mAB, competitor DTPA-Cd; conditions: solid phase Y benzyl-DTPA-HSA conjugate
Protocol: as §1, §2, §3, §4

EDTA-Cd = assay: Quantitative inhibition ELISA of mAB, competitor EDTA-Cd; conditions: solid phase Y benzyl-DTPA-HSA conjugate
Protocol: as §1, §2, §3, §4

[2] = Quantitative inhibition ELISA of mAB, competitor 1,2-diaminoethane; conditions: no inhibition up to the stated excess
Protocol: as §1, §2, §3, §4

DTPA-Zn = assay: Quantitative inhibition ELISA of mAB, competitor DTPA-Zn; conditions: solid phase Y benzyl-DTPA-HSA conjugate
Protocol: as §1, §2, §3, §4

[3] = Quantitative inhibition ELISA of mAB, competitor DTPA; conditions: competitor DTPA (noncomplexed); solid phase Y benzyl-DTPA-HSA conjugate
Protocol: as §1, §2, §3, §4

DTPA-Y = assay: Quantitative inhibition ELISA of mAB, competitor DTPA-Y; conditions: solid phase Y benzyl-DTPA-HSA conjugate
Protocol: as §1, §2, §3, §4

EDTA-Zn = assay: Quantitative inhibition ELISA of mAB, competitor EDTA-Zn; conditions: solid phase Y benzyl-DTPA-HSA conjugate
Protocol: as §1, §2, §3, §4

EDTA-Cu = assay: Quantitative inhibition ELISA of mAB, competitor EDTA-Cu; conditions: solid phase Y benzyl-DTPA-HSA conjugate
Protocol: as §1, §2, §3, §4

EDTA-Pb = assay: Quantitative inhibition ELISA of mAB, competitor EDTA-Pb; conditions: solid phase Y benzyl-DTPA-HSA conjugate
Protocol: as §1, §2, §3, §4

DTPA-Mn = assay: Quantitative inhibition ELISA of mAB, competitor DTPA-Mn; conditions: solid phase Y benzyl-DTPA-HSA conjugate
Protocol: as §1, §2, §3, §4

[4] = Quantitative inhibition ELISA of mAB, competitor transaconitic acid; conditions: competitor trans-aconitic acid; no inhibition up to the stated excess
Protocol: as §1, §2, §3, §4

EDTA-Y = assay: Quantitative inhibition ELISA of mAB, competitor EDTA-Y; conditions: solid phase Y benzyl-DTPA-HSA conjugate
Protocol: as §1, §2, §3, §4

B1: mAB 2050/535: particularly suitable anti-EDTA/DTPA monoclonal antibody; VL and VH sequences in SEQ ID NO:1-4 (antibody, V domains shown)
VH: LQQSGAELVKPGASVKLSCTSGLNIKDTYINWVKQRPEQGLEWIGRIGPANGNTKYDPKFQGKATLTADTSSNTAYLQLSSLTSEDTAVYYCSRRWFFLYWGQGTTVT
VL: QLTQESALTTSPGETVTLTCRSSTGAVTTSNYATWVQEKPDHLFTGLIGGTKNRAPGVPARFSGSLIGDKAALTITGAQTEDEAIYFCALWYSNHWVFGGGTKLKI
particularly strong: interaction with EDTA and the complexes thereof ([1]; statement in words, EDTA and its metal complexes)
10^2: Molar excess of competitor, which leads to 50% inhibition of binding to the solid phase antigen (EDTA-Mn) | Molar excess of competitor, which leads to 50% inhibition of binding to the solid phase antigen ([1]; competitor EDTA (noncomplexed), solid phase Y benzyl-DTPA-HSA conjugate) | Molar excess of competitor, which leads to 50% inhibition of binding to the solid phase antigen (DTPA-Cd) | Molar excess of competitor, which leads to 50% inhibition of binding to the solid phase antigen (EDTA-Cd) | Molar excess of competitor, which leads to 50% inhibition of binding to the solid phase antigen [3] | Molar excess of competitor, which leads to 50% inhibition of binding to the solid phase antigen (EDTA-Zn) | Molar excess of competitor, which leads to 50% inhibition of binding to the solid phase antigen (EDTA-Cu) | Molar excess of competitor, which leads to 50% inhibition of binding to the solid phase antigen (EDTA-Pb) | Molar excess of competitor, which leads to 50% inhibition of binding to the solid phase antigen (DTPA-Mn) | Molar excess of competitor, which leads to 50% inhibition of binding to the solid phase antigen (EDTA-Y)
10^3: Molar excess of competitor, which leads to 50% inhibition of binding to the solid phase antigen (DTPA-Cu) | Molar excess of competitor, which leads to 50% inhibition of binding to the solid phase antigen (DTPA-Pb) | Molar excess of competitor, which leads to 50% inhibition of binding to the solid phase antigen (DTPA-Zn)
10^4: Molar excess of competitor, which leads to 50% inhibition of binding to the solid phase antigen (DTPA-Y)
> 10^5: Molar excess of competitor, which leads to 50% inhibition of binding to the solid phase antigen [2] | Molar excess of competitor, which leads to 50% inhibition of binding to the solid phase antigen [4]
